In PMC8962251 (Biomedicines, 2022):
Where no end group is shown, it is not given here.

Target: T1, SARS CoV-2 S1S2 trimer (SARS-CoV-2, UniProt P0DTC2 14-1213)
T1 construct: also called trimeric S1S2; "wt" spike trimer
Experiment: SPR
Conditions: both partners purified

B1: CVRBDL-3 (peptide)
peptide: HDFWWEYDKKNDTWTRRRR-NH2
notes: also called CVRDBL-3; CVRBD-3; source: synthetic peptide; bought: CASLO
stoichiometry N: 1
